In article PMC4342030 (Molecular Biology of the Cell, 2015):

T1: GFP-Rab31 (mouse, UniProt Q921E2 1-195)
T1 sequence (looked up): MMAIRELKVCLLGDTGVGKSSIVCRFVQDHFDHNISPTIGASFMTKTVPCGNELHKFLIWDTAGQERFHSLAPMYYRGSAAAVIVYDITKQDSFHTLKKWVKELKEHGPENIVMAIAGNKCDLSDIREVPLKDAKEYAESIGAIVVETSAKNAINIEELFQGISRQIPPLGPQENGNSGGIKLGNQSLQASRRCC

T2: purified APPL2 after cleavage of GST (mouse, UniProt Q8K3G9 1-662)
T2 sequence (looked up): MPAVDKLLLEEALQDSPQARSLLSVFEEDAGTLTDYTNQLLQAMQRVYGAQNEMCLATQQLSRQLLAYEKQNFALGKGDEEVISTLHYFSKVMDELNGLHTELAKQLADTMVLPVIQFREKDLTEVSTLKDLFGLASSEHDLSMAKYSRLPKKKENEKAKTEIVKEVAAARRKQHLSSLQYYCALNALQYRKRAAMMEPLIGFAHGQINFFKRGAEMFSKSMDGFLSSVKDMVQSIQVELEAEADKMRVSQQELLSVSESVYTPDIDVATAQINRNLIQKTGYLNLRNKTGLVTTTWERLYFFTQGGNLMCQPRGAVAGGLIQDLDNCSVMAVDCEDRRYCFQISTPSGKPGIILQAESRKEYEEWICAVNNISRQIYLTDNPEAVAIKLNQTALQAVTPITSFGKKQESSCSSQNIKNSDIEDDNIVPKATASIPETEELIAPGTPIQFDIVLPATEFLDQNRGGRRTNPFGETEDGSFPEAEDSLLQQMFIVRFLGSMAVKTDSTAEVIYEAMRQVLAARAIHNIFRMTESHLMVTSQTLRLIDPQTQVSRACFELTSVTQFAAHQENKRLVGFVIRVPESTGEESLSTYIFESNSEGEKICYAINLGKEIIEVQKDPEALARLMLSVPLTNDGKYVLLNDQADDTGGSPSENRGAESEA


What was measured:
[1] = molecular target: T1, GFP-Rab31; assay: co-IP
[2] = molecular target: T2, purified APPL2 after cleavage of GST; assay: pull-down

| fold preference over GFP-Rab5a [1] [fold] | binding result [2] | Binder |
| --- | --- | --- |
| 3 |  | APPL2 (adaptor protein, phosphotyrosine interaction, PH domain, and leucine zipper–containing 2) (natural protein, mouse (endogenous in RAW 264.7), UniProt Q8K3G9 1-662, looked up) MPAVDKLLLEEALQDSPQARSLLSVFEEDAGTLTDYTNQLLQAMQRVYGAQNEMCLATQQLSRQLLAYEKQNFALGKGDEEVISTLHYFSKVMDELNGLHTELAKQLADTMVLPVIQFREKDLTEVSTLKDLFGLASSEHDLSMAKYSRLPKKKENEKAKTEIVKEVAAARRKQHLSSLQYYCALNALQYRKRAAMMEPLIGFAHGQINFFKRGAEMFSKSMDGFLSSVKDMVQSIQVELEAEADKMRVSQQELLSVSESVYTPDIDVATAQINRNLIQKTGYLNLRNKTGLVTTTWERLYFFTQGGNLMCQPRGAVAGGLIQDLDNCSVMAVDCEDRRYCFQISTPSGKPGIILQAESRKEYEEWICAVNNISRQIYLTDNPEAVAIKLNQTALQAVTPITSFGKKQESSCSSQNIKNSDIEDDNIVPKATASIPETEELIAPGTPIQFDIVLPATEFLDQNRGGRRTNPFGETEDGSFPEAEDSLLQQMFIVRFLGSMAVKTDSTAEVIYEAMRQVLAARAIHNIFRMTESHLMVTSQTLRLIDPQTQVSRACFELTSVTQFAAHQENKRLVGFVIRVPESTGEESLSTYIFESNSEGEKICYAINLGKEIIEVQKDPEALARLMLSVPLTNDGKYVLLNDQADDTGGSPSENRGAESEA |
|  | binds | GST-Rab31 (natural protein, mouse, UniProt Q921E2 1-195, looked up) MMAIRELKVCLLGDTGVGKSSIVCRFVQDHFDHNISPTIGASFMTKTVPCGNELHKFLIWDTAGQERFHSLAPMYYRGSAAAVIVYDITKQDSFHTLKKWVKELKEHGPENIVMAIAGNKCDLSDIREVPLKDAKEYAESIGAIVVETSAKNAINIEELFQGISRQIPPLGPQENGNSGGIKLGNQSLQASRRCC |
